Experimental findings from US20250017964A1, “ENGINEERING OR INDUCING PDGF AND/OR PDGFR SIGNALING TO ENHANCE NK CELL THERAPY” (City of Hope, priority 2021, published 2025) are described below.

The subject of test [1] is PDGFRβ expression in human NK cells. Put plainly: Cytokine-induced PDGFRβ expression in purified human NK cells, flow cytometry. The class given is cell-based. Conditions: cytokine 10 ng/ml, 24 h; IL-15 effect dose- and time-dependent. An excerpt: Data shown are the percentages of PDGFRβ^+ NK cells among total NK cells (n=5). […] Bar=20 μm. […] Data represent three independent experiments. Data shown are means SD.
(§1) FIGS. 7A-7F. […] Data shown are representative histograms and mean fluorescence intensity (MFI) of PDGFRα. […] Expression levels of PDGFRβ were examined by flow cytometry (n=6). […] Data shown are the percentages of PDGFRβ^+ NK cells among total NK cells (n=5). […] Data shown are representative histograms with MFI of PDGFRβ expression. (F) Expression levels of PDGFRβ on NK cells from IL-15 transgenic (Tg) mice were determined by flow cytometry. Data shown are representative histograms. Data represent three independent experiments.
NK cells were cultured in RPMI 1640 with 10% heat-inactivated FBS (Gibco) at 37° C. in a 5% CO2 humidified incubator. For NK cell transduction, PDGFRB cDNA ORF clone (Cat: HG10514-G) was purchased from Sino Biological and cloned into pCDH-CMV-MCS-EF1-copGFP lentivirus vector (System Biosciences). To produce lentivirus, we transfected the lentiviral transfer vector DNA, together with psPAX2 packaging (Addgene) and pMD2.G envelope plasmid DNA (Addgene), into HEK293T cells; using a polyethyenimine (PEI) transfection protocol (Polysciences). Concentrated lentivirus was added to primary NK cells cultured in RPMI 1640 medium supplemented with 10% FCS and 10 jig/mL polybrene with 2,000×g centrifugation for 2 h. […]
(In general: A flow cytometer gives signals particle by particle.)

The test system of the next test is murine NK cells. Put plainly: PDGFRβ expression in murine splenic NK cells, flow cytometry. The class given is cell-based, mouse. The settings on record: splenic NK cells of C57BL/6 mice, mouse cytokines 10 ng/ml, 24 h. How it is done:
as §1
Mouse NK cells were isolated from the spleen of C57BL/6J or IL-15 transgenic mice, using the EasySep Mouse NK Cell Isolation Kit ([…] Technologies) as previously described (11).
Cells were stained with the indicated cell-surface markers and/or fixed/permeabilized using a Fixation/Permeabilization Kit (eBioscience). For intracellular staining of IFN-γ and PDGF-D, 5 μg/ml Brefeldin A (BioLegend) was added for 4 h before cell harvest. Intracellular staining of Ki67 was performed by fixing and permeabilizing with the Foxp3/Transcription Factor Staining Kit (eBioscience). […] Data were analyzed using NovoExpress software (Agilent Technologies).

B1: IL-12: recombinant human IL-12 p70 (200-12); recombinant murine IL-12 in the mouse NK cell test (protein, UniProt P29459 23-219; P29460 23-328, looked up)
Interleukin-12 subunit alpha: RNLPVATPDPGMFPCLHHSQNLLRAVSNMLQKARQTLEFYPCTSEEIDHEDITKDKTSTVEACLPLELTKNESCLNSRETSFITNGSCLASRKTSFMMALCLSSIYEDLKMYQVEFKTMNAKLLMDPKRQIFLDQNMLAVIDELMQALNFNSETVPQKSSLEEPDFYKTKIKLCILLHAFRIRAVTIDRVMSYLNAS
Interleukin-12 subunit beta: IWELKKDVYVVELDWYPDAPGEMVVLTCDTPEEDGITWTLDQSSEVLGSGKTLTIQVKEFGDAGQYTCHKGGEVLSHSLLLLHKKEDGIWSTDILKDQKEPKNKTFLRCEAKNYSGRFTCWWLTTISTDLTFSVKSSRGSSDPQGVTCGAATLSAERVRGDNKEYEYSVECQEDSACPAAEESLPIEVMVDAVHKLKYENYTSSFFIRDIIKPDPPKNLQLKPLKNSRQVEVSWEYPDTWSTPHSYFSLTFCVQVQGKSKREKKDRVFTDKTSATVICRKNASISVRAQDRYYSSSWSEWASVPCS
modifications: p70 heterodimer
notes: recombinant human IL-12 p70 (200-12); recombinant murine IL-12 in the mouse NK cell test
In the case of B1, in test [1], the PDGFRβ expression result was “ineffective”. In addition, the “PDGFRβ expression in murine NK cells” value in the test on murine NK cells is given as “did not express PDGFRβ”.
